# Numbering of substitutions follows the chain as printed. In names and notes the source's numbering stands.
# B1: wt CbbR: wild-type CbbR (R. eutropha), 317 amino acids, SEQ ID NO: 1 (protein)
# chain: MSSFLRALTLRQLQIFVTVARHASFVRAAEELHLTQPAVSMQVKQLESVVGMALFERVKGQLTLTEPGDRLLHHASRILGEVKDAEEGLQAVKDVEQGSITIGLISTSKYFAPKLLAGFTALHPGVDLRIAEGNRETLLRLLQDNAIDLALMGRPPRELDAVSEPIAAHPHVLVASPRHPLHDAKGFDLQELRHETFLLREPGSGTRTVAEYMFRDHLFTPAKVITLGSNETIKQAVMAGMGISLLSLHTLGLELRTGEIGLLDVAGTPIERIWHVAHMSSKRLSPASESCRAYLLEHTAEFLGREYGGLMPGRRVA
# B2: G98R (protein)
# chain: B1 chain with G98R
# B3: R272Q (protein)
# chain: B1 chain with R272Q
# B4: A167V (protein)
# chain: B1 chain with A167V
# B5: A117V (protein)
# chain: B1 chain with A117V
# B6: D144N (protein)
# chain: B1 chain with D144N
# B7: G205D (protein)
# chain: B1 chain with G205D
# B8: E87K/G242S (protein)
# chain: B1 chain with E87K, G242S
# B9: L79F (protein)
# chain: B1 chain with L79F
# B10: constitutive cbbL promoter: constitutive R. eutropha cbbL promoter, SEQ ID NO: 30 (nucleic acid)
# DNA: GCAACTGGCGAAGGGTAAGGGCGCGCAGGAAGGACGACATGGGCGGTTGGGGGCGGCTTTGGATGGTCCCGTGATGTGCAGCTTGGTCCGCACTTAAGGGATTGCTTATACAGGGGCTAAGAATATCTGAATTGACATTATGTGGGTGGGCTTATATAATTGCATCAACGCAGCAGCCAAGACGCTCAACCACGCAAGGAGACAAGC
# System: cbb promoter
# Test: not given
# Format: binding, R. eutropha
# Settings: in the presence of ATP
row,Molecule,"effect of ATP on CbbR binding to cbb promoter probe (phosphorimage, in words)"
1,B1,enhancement of binding
2,B2,no enhancement of binding
3,B3,modest enhancement of binding

# Same assay, conditions: in the presence of FBP
row,Molecule,"effect of FBP on CbbR binding to cbb promoter probe (phosphorimage, in words)"
1,B1,no enhancement of binding

# Same assay, conditions: in the presence of NADPH
row,Molecule,"effect of NADPH on CbbR binding to cbb promoter probe (phosphorimage, in words)"
1,B1,modest enhancement of binding

# Same assay, conditions: in the presence of Ru5P
row,Molecule,"effect of Ru5P on CbbR binding to cbb promoter probe (phosphorimage, in words)"
1,B1,no enhancement of binding

# Same assay, conditions: in the presence of RuBP
row,Molecule,"effect of RuBP on CbbR binding to cbb promoter probe (phosphorimage, in words)"
1,B1,enhancement of binding
2,B2,modest enhancement of binding
3,B3,reduction of binding

# System: RubisCO
# Test: not given
# Format: cell-based, Ralstonia eutropha
# Settings: CA growth conditions
row,Molecule,level of RubisCO relative to wild-type CbbR [fold]
1,B4,~2.7
2,B5,2.2
3,B6,2.2

# Same assay, conditions: Table 9, chemoautotrophic growth conditions
row,Molecule,Chemoautotrophic RubisCO activity
1,B1,90 nmol/min/mg of protein
2,B7,133 nmol/min/mg of protein
3,B8,128 nmol/min/mg of protein
4,B4,173 nmol/min/mg of protein
5,B9,209 nmol/min/mg of protein
6,B5,171 nmol/min/mg of protein
7,B6,188 nmol/min/mg of protein

# Same assay, conditions: Table 12, chemoautotrophic (induced) growth
row,Molecule,Chemoautotrophic RubisCO activity
1,B1,139 nmol/min/mg of protein
2,B7,54 nmol/min/mg of protein
3,B8,198 nmol/min/mg of protein
4,B4,370 nmol/min/mg of protein
5,B9,304 nmol/min/mg of protein
6,B5,314 nmol/min/mg of protein
7,B6,314 nmol/min/mg of protein

# Same assay, conditions: Table 12, chemoheterotrophic (repressed) growth
row,Molecule,Chemoheterotrophic RubisCO activity
1,B1,0.1 nmol/min/mg of protein
2,B7,10 nmol/min/mg of protein
3,B8,6 nmol/min/mg of protein
4,B4,15 nmol/min/mg of protein
5,B9,4 nmol/min/mg of protein
6,B5,6 nmol/min/mg of protein
7,B6,26 nmol/min/mg of protein

# System: cbb promoter
# Test: not given
# Format: cell-based, Ralstonia eutropha
# Settings: Table 9, chemoautotrophic growth conditions
row,Molecule,Chemoautotrophic β-galactosidase activity
1,B1,3265 nmol/min/mg of protein
2,B7,2634 nmol/min/mg of protein
3,B8,4312 nmol/min/mg of protein
4,B4,7373 nmol/min/mg of protein
5,B9,6840 nmol/min/mg of protein
6,B5,6793 nmol/min/mg of protein
7,B6,6932 nmol/min/mg of protein

# Same assay, conditions: Table 12, chemoautotrophic (induced) growth
row,Molecule,Chemoautotrophic β-galactosidase activity
1,B1,3265 nmol/min/mg of protein
2,B7,2241 nmol/min/mg of protein
3,B8,4820 nmol/min/mg of protein
4,B4,7373 nmol/min/mg of protein
5,B9,6840 nmol/min/mg of protein
6,B5,6793 nmol/min/mg of protein
7,B6,6932 nmol/min/mg of protein

# Same assay, conditions: Table 12, chemoheterotrophic (repressed) growth
row,Molecule,Chemoheterotrophic β-galactosidase activity
1,B1,3 nmol/min/mg of protein
2,B7,488 nmol/min/mg of protein
3,B8,303 nmol/min/mg of protein
4,B4,768 nmol/min/mg of protein
5,B9,218 nmol/min/mg of protein
6,B5,254 nmol/min/mg of protein
7,B6,809 nmol/min/mg of protein

# System: Ralstonia eutropha cbbR deletion reporter strain
# Test: not given
# Format: cell-based
# Settings: chemoautotrophic, CO2/H2/O2 atmosphere, minimal media
row,Molecule,Doubling Time [h]
1,B7,7.8
2,B8,6.0
3,B9,5.6
4,B6,6.8

# System: cbbL transcript
# Test: not given
# Format: cell-based, Ralstonia eutropha
# Settings: chemoautotrophic growth, 26 cycles of PCR
row,Molecule,"increase in transcription over wild type CbbR (RT-PCR, FIG. 22) [fold]"
1,B4,4.1
2,B6,1.8

# Same assay, conditions: chemoautotrophic growth, OD 0.2
row,Molecule,"increase in cbb transcript over wild type CbbR (RT-PCR, FIG. 21) [fold]"
1,B4,3.3
2,B5,1.9
3,B6,2.4

# System: R. eutropha
# Test: Relative promoter strength / gene expression in R. eutropha
# Format: cell-based
# Settings: autotrophic growth conditions
# Method: The lac and tac promoters are E. coli promoters, but have been used to drive gene expression of other genes in R. eutropha. The pha promoter is a native R. eutropha promoter and drives expression of genes involved in polyhydroxybutyrate (PHB) production. The relative strength of these promoters in R. eutropha was determined. The pha promoter was 1.2 times stronger than the lac promoter and that the tac promoter was 2.1 times stronger than the lac promoter (1). The cbbM and cbbL promoters were also examined. The cbbM and cbbL promoters are strong promoters which drive expression of the genes that encode for RubisCO in Rhodosporilium rubrum/Rhodobacter sphaeroides/Rhodobacter capsulatus and R. eutropha, respectively. […] Each promoter was placed in the vector pBBR1MCS3, and the ability of these gene expression vectors was assessed (Table 4). The pBBR1 vector has Accession No. U02374 (4707 bp). The pBBR1MCS-3 vector has Accession No. U25059 (5228 bp). Plasmid pRPS-MCS3 (SEQ ID NO: 36) (see Journal of Molecular Biology, 331(3): 557-569 (2003)) derives from plasmid pBBR1-MCS3.
# Vectors were made with the native cbbL and constitutive cbbL promoters. The cbbL promoter is native to R. eutropha and is highly expressed and regulated. […] To construct strains with a constitutive cbbL promoter, the lac promoter within the pBBR1MCS-3 vector was removed and replaced by the constitutive cbbL promoter. […]
row,Molecule,increase in gene expression [fold]
1,B10,2.4

# — US20170298395A1, “AUTOTROPHIC HYDROGEN BACTERIA AND USES THEREOF” (Ohio State Innovation Foundation, priority 2011, published 2017)
